From patent US20240279345A1, “ALPHA 5 BETA 1 INTEGRIN BINDING AGENTS AND USES THEREOF” (PASITHEA THERAPEUTICS CORP., priority 2021, published 2024) come the findings set out here.

One test has as its system U87MG cells. The test is described as follows: Cellular detachment of U87MG cells from FN coated plates. It counts as cell-based. Particulars: antibodies 2.0-0.016 μg/mL, cRGD 20-0.16 μM; 1 hour and 3 hours. The method, then: The A-15B08 and A2-7A05 antibodies and cRGD were also tested for their ability to induce dissociation of cellular α5β1 integrin from FN. U87MG cells (HTB-14™, ATCC, Manassas, VA) which were originally derived from a Glioblastoma tumor, are known to express α5β1 integrin, and adhere to FN coated plates. After an overnight incubation on FN coated plates, the U87MG cells formed a loosely packed monolayer and have extended spindle shapes. If the cells are induced to detach from the plates, by trypsin for example, the attachment points are released, and the cells become round. This type of change in morphology was used to assess whether the antibodies and the small molecule inhibitor cRGD can induce U87MG cells to dissociate from FN coated plates.
The following method was used to assess cellular detachment activity: A 96-well cell culture plate (Thermo Fisher Scientific, Waltham, MA, cat. no. 165306) was coated with FN (Human Fibronectin, R&D Systems, Minneapolis, MN 55413, cat. no. 1918-FN) by incubation of 50 uL per well 32 μg/mL FN in 1×PBS for 1 hour at 37° C., then washed 2× with EMEM media (ATCC, Manassas, VA, cat. no. 30-2003) supplemented with 10% Fetal Bovine Serum (FBS; ATCC, Manassas, VA, cat. no. 30-2021). U87MG cells were plated at 20,000 cells per well in EMEM media+10% FBS overnight to allow for maximum adherence. The next day the media was replaced with fresh media that included a 1:5 dilution series of antibodies A-15B08, A2-7A05 or isotype control IgG4 at concentrations of 2.0, 0.4, 0.08 and 0.016 μg/mL or cRGD at 20, 4, 0.8 and 0.16 μM. All tests were run in duplicate. Cell morphology was assessed, and images were captured using a 10× objective of an ECHO Rebel light microscope (ECHO, San Diego, CA).

Test [1] addresses rh-α5β1 protein bound to human FN protein (Homo sapiens, UniProt P05556+P08648). The experiment in a line: SPR dissociation of rh-α5β1 bound to FN. It counts as biochemical. To be noted: 1 μM antibody injected for 250s after 400 nM rh-α5β1; 25° C. Here is the method: Surface Plasmon Resonance (SPR) and a cell-based assay were used to test the effect of the antibodies on the dissociation of rh-α5β1 protein bound to human FN protein. The antibodies tested are representatives of the two groups of antibodies identified in Example 6 that define two different epitope binding groups and have distinct ligand blocking properties. […] In addition, the small molecule antagonist cyclic RGD (cRGD; Creative-Peptides, Shirley, New York, 11967, cat. no. CP22175) was tested as a comparator that inhibits α5β1 integrin binding to FN by competing at the ligand binding pocket.
Description of the SPR method used: FN protein dissolved in water was manually printed onto the bare gold-coated (thickness 47 nm) PlexArray Nanocapture Sensor Chip (Plexera Bioscience, Seattle, WA) at 40% humidity. The chip was incubated in 80% humidity at 4° C. for overnight and rinsed with 10×PBST (0.1M phosphate buffer, 1.54M NaCl, pH7.4, 0.5% Tween20) for 10 minutes (min), 1×PBST (0.01M phosphate buffer pH7.4, 0.154M NaCl, 0.05% Tween20) for 10 min, and deionized water twice for 10 min. The chip was then blocked with 5% (w/v) non-fat milk in water overnight, and washed with 10×PBST for 10 min, 1×PBST for 10 min, and deionized water twice for 10 min before being dried under a stream of nitrogen prior to use. SPR measurements were performed using PlexArray HT (Plexera Bioscience, Seattle, WA), a high-throughput surface plasmon resonance imaging (SPRi) platform. Collimated light (660 nm) passes through the coupling prism, reflects off the SPR-active gold surface, and is received by the CCD camera. Buffers and samples were injected by a non-pulsatile piston pump into the 30 μL flow cell that was mounted on the coupling prim. […] SPR binding responses (a.u.) were recorded and plotted over time.

Test [2] concerns the target T1, rh-α5β1 in active conformation (binding to 12G10) (Homo sapiens, UniProt P05556+P08648).
T1 construct: purchased Acro Biosystems IT1-H52W5
The experiment in a line: 12G10 conformation assay (α5β1 integrin binding to 12G10). To be noted: human IgG4 chimeric antibodies; 0.5 mM MnCl2. Here is the method: A Nunc MaxiSorp Flat-Bottom 96-well plate (Invitrogen, Waltham, MA, cat. no. 44-2404-21) was coated with 12G10 antibody at 2 μg/mL in 0.2M carbonate-bicarbonate buffer, pH9.4 (Thermo Scientific, Rockford, IL, cat. No. 28382) by incubation overnight at 4° C. Plates were then washed 3 times with Wash Buffer (1× Tris Buffered Saline containing 0.05% Tween20), then blocked with 2% BSA in 1×TBS for 2 hours at room temperature (RT). The human IgG4 chimeric versions of the antibodies were diluted in Standard Diluent (2% BSA, 1×TBS, 0.05% Tween20) containing 0.05 μg/mL rh-α5β1-6×His tagged protein (Acro Biosystems, Newark, DE, cat. no. IT1-H52W5) and 0.5 mM MnCl2 (TEKnova, Hollister, CA, cat. no. M0350) to generate a 7 point 1:5 antibody dilution series ranging from 10,000 ng/mL to 0.64 ng/mL. In addition to human IgG4 chimeric antibodies A-15B08, C-14D12 and A2-7A05, three other antibodies tested included IgG4 isotype control (human IgG4, Kappa, anti-fluorescein Ab00102-13.0, Absolute Antibody, Wilton, UK), anti-integrin alpha-5 clone SNAKA51 (MilliporeSigma, St. Louis, MO, cat. no. MABT201) known to induce integrin alpha-5 into an active conformation, and finally the 12G10 antibody itself which can directly compete with the 12G10 bound to the MaxiSorp plate. For the assays, 100 μL of the antibody dilution series, His-tagged-α5β1 mixture was added to the wells after the blocking solution was removed and wells were washed 3 times. […] Absorbance 450 nm was measured. Data points were normalized to the absorbance of the well containing no antibody for each dilution series and reported as Percent Binding. […]

In a further test the target is rh-α5β1 (Homo sapiens, UniProt P05556+P08648). The experiment in a line: Competition binding studies by Biolayer Interferometry (epitope groups). Particulars: for Response (nm) / % Response: secondary mAb pre-mixed with 20 nM rh-α5β1; for % Response: relative to antigen alone. The method, then:
Epitope analysis via competition binding studies was performed using Biolayer Interferometry (BLI) on the 6 antibodies selected as described in Example 5. The anti-α5β1 FN blocking antibodies A2-7A05, C-14D12 and A-15B08 were immobilized on sensors and incubated with each of the other antibodies that had been preincubated with rh-α5β1, to determine whether this antibody-antigen association prevents or allows binding to the antibody on the sensor. The magnitude of observed binding (response) was compared to binding of antigen alone under the same conditions. If the overall response was greater than 120% of antigen binding alone, then the antibodies can pair with each other. If response was less than 80% of response of antigen binding alone, then the antibodies block each other. The protocol was as follows: preincubate the panel of antibodies with antigen (1 hr). Equilibrate the sensor (30 seconds (s))-->Load lead Ab on the sensor (700s)--->Quench (480s)--->Read baseline (480s)-->measure preincubated Ab+Ag association with loaded sensor (600s).
Background: In BLI a coated tip is dipped into the sample, and binding shifts an interference pattern.

For test [3], the target named is T2, binding of α5β1 integrin to fibronectin (FN) (Homo sapiens, UniProt P05556+P08648).
T2 construct: purchased Acro Biosystems IT1-H52W5
The test is described as follows: Quantitative FN inhibition (FN-blocking) assay in ELISA format. It is filed as biochemical. Particulars: by ELISA. An excerpt:
To determine whether the 9 unique hybridoma clones selected as described in Example 4 were able to inhibit the binding of α5β1 integrin to fibronectin (FN), the antibodies were first purified from hybridoma supernatants by Protein A chromatography, protein concentrations measured by BCA assay (Pierce™ BCA Protein Assay Kit; Thermo Fisher Scientific, Waltham, MA, cat. no. 23225) and then tested in a quantitative FN inhibition assay in an ELISA format.
Immulon4 HBX ELISA 96-well plates were coated with FN by incubation overnight at 4° C. with 2.5 μg/mL human FN (R&D Systems, Minneapolis, MN 55413, cat. no. 1918-FN) in 1×PBS (0.01M phosphate buffer and 0.154M NaCl, pH 7.4). Plates were then washed 3 times with Wash Buffer (1× Tris Buffered Saline containing 0.05% Tween20), blocked with 2% BSA in 1×TBS for 2 hours at room temperature (RT). Antibodies were diluted in Standard Diluent (2% BSA, 1×TBS, 0.05% Tween20) containing 0.1 μg/mL rh-α5β1-6×His tagged protein (Acro Biosystems, Newark, DE, cat. no. IT1-H52W5), to generate an 11 point 1:3 antibody dilution series ranging from 10,000 ng/mL to 0.17 ng/mL. Isotype control antibody (Control Ab; Ms IgG2a EMD Millipore Corp, Billerica, MA, cat. no. PP102) was used to normalize data across different assay runs. For the assays, 100 uL of the antibody dilution series/His-tagged-α5β1 mixture was added to the wells after the blocking solution was removed and wells were washed 3 times. Following 1 hour at RT, the wells were washed 3 times, incubated with biotinylated Anti-6×His-Tag Ab (Invitrogen, Carlsbad, CA, cat. no. MAI-21315-BTIN) at 1:1000 in Standard Diluent for 1 hour, washed 3 times, incubated for 30 minutes with poly-HRP Streptavidin (Thermo Fisher Scientific, Waltham, MA, cat. no. N200), washed 4 times, incubated with TMB substrate (Thermo Fisher Scientific, Waltham, MA, cat. no. N301) for 2-5 minutes, followed by addition of ELISA Stop Solution (Invitrogen, Carlsbad, CA, cat. no. SS04). Absorbance 450 nm was measured. Data points were normalized to the isotype Control Ab values at each concentration and reported as % Absorbance 450 nm normalized to Control Ab. Non-linear regression analysis was used to fit curves (4-parameter) to the data using GraphPad Prism version 9.0.2 (GraphPad Software, LLC, San Diego, CA).
Freeze-thaw stability was tested on a small aliquot of each chimera antibody by overnight storage at −80° C. followed by thaw on ice, repeated three times. […] IC50s were calculated by non-linear regression analysis curve-fitting (4-parameter) of the ELISA data (FIG. 5) using GraphPad Prism version 9.0.2 (GraphPad Software, LLC, San Diego, CA). […]
In general terms: ELISA stands for enzyme-linked immunosorbent assay.

rh-α5β1, sequence (P08648 42-894 limits assumed): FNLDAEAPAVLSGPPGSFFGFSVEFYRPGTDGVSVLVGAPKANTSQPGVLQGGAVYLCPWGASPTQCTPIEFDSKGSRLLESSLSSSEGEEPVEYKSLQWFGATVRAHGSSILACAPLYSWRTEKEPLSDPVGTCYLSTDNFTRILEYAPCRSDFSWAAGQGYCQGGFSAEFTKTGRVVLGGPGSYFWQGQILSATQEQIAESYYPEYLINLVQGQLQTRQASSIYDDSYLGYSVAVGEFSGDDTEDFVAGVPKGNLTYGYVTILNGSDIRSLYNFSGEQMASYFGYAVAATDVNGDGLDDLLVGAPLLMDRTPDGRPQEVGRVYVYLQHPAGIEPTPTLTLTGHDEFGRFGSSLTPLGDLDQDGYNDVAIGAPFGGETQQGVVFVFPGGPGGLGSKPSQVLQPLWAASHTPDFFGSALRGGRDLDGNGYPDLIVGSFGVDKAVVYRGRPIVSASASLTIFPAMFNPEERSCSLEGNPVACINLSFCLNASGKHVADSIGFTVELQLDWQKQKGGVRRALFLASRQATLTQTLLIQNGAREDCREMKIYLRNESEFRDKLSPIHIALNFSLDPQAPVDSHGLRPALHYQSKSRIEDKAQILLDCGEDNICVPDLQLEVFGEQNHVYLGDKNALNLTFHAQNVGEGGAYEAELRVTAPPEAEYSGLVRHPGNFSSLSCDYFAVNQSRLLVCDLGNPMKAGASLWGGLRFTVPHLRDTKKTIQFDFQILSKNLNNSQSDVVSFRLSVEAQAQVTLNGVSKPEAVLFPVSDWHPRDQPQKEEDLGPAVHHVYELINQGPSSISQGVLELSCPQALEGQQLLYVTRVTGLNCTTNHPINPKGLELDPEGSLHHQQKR
rh-α5β1, sequence (P08648 895-995 limits assumed): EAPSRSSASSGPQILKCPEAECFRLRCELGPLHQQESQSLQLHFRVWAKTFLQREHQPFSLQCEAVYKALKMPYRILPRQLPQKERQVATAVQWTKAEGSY
rh-α5β1, sequence (P05556 21-728 limits assumed): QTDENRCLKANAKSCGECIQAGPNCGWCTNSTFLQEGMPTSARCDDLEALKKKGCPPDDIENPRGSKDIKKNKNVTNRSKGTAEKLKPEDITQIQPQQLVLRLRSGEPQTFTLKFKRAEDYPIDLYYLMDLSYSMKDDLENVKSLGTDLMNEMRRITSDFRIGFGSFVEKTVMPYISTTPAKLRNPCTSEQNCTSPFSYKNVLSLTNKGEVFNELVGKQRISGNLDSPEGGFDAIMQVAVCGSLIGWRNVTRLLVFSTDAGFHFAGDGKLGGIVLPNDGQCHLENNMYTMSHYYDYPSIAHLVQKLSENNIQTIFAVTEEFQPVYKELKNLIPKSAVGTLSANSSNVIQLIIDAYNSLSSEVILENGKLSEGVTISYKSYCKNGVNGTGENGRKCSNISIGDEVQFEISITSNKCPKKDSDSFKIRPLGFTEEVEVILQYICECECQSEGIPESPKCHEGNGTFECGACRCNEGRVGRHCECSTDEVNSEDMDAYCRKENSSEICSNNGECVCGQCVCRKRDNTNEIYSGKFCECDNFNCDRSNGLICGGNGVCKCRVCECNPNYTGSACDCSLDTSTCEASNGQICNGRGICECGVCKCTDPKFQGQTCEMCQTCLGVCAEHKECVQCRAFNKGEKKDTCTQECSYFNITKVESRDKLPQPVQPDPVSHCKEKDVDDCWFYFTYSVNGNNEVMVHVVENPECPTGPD
T1 sequence (P08648 42-894 limits assumed): as the sequence (P08648 42-894 limits assumed) above
T1 sequence (P08648 895-995 limits assumed): as the sequence (P08648 895-995 limits assumed) above
T1 sequence (P05556 21-728 limits assumed): as the sequence (P05556 21-728 limits assumed) above
rh-α5β1 protein bound to human FN protein, sequence (P08648 42-894 limits assumed): as the sequence (P08648 42-894 limits assumed) above
rh-α5β1 protein bound to human FN protein, sequence (P08648 895-995 limits assumed): as the sequence (P08648 895-995 limits assumed) above
rh-α5β1 protein bound to human FN protein, sequence (P05556 21-728 limits assumed): as the sequence (P05556 21-728 limits assumed) above
T2 sequence (P08648 42-894 limits assumed): as the sequence (P08648 42-894 limits assumed) above
T2 sequence (P08648 895-995 limits assumed): as the sequence (P08648 895-995 limits assumed) above
T2 sequence (P05556 21-728 limits assumed): as the sequence (P05556 21-728 limits assumed) above

Take cyclic RGD [cRGD, reference compound]: the “cellular detachment (cell rounding) of U87MG cells from FN coated plates” value in the test with U87MG cells is recorded as “did not show significant cell detachment”. Also, the “effect on dissociation of rh-α5β1 protein bound to FN (SPR response)” value in test [1] is “did not have any discernable effect on the dissociation rate”.

B1: C-14D12: anti-α5β1 antibody, VH SEQ ID NO:109, VL SEQ ID NO:110; tested as mouse hybridoma antibody and as human IgG4 chimera (antibody, V domains shown)
VH: QVQLKESGPDLVAPSQSLSITCTVSGFSLTDYGVHWVRQPPGKGLEWLVVIWSDGSTTYNSALKSRLSITKDTSKRQVFLKMNSLQTDDTAMYYCARHAPSFIRYGSRYDALDYWGQGTSVTVSS
VL: QIVLTQSPAIMSASLGERVTLTCTASSSVTSSFLHWYQQKPGSSPKLWIYSTSNLASGVPARFSGSGSGTSYSLTISSMEAEDAATYYCHQYHRSPPTFGGGTKLEIK
modifications: C-14D12 VH Sequence; C-14D12 VL Sequence
notes: tested as mouse hybridoma antibody and as human IgG4 chimera
For B1, the “reduction of α5β1 integrin binding to 12G10” value in test [2] was “approximately 50%”. Also, in the test with rh-α5β1 (antibody preincubated with rh-α5β1, A2-7A05 immobilized on sensor), the “binding of rh-α5β1 complexed with antibody to A2-7A05 on the sensor” value was “able to bind”. Also, in the test with rh-α5β1 (antibody preincubated with rh-α5β1, A-15B08 immobilized on sensor), the “binding of rh-α5β1 complexed with antibody to A-15B08 on the sensor” value is given as “not able to bind”. Besides, the entries for the “Response (nm)” value with rh-α5β1 (immobilized mAb A2-7A05), in the test with rh-α5β1 (immobilized mAb A-15B08) and with rh-α5β1 (immobilized mAb C-14D12) were 0.11 nm, −0.15 nm and −0.11 nm, respectively. Moreover, the “% Response” value is 309.19% in the test with rh-α5β1 (immobilized mAb A2-7A05), −72.85% with rh-α5β1 (immobilized mAb A-15B08) and −50.49% with rh-α5β1 (immobilized mAb C-14D12). Moreover, the epitope group result with rh-α5β1 (two epitope groups among 6 antibodies) was “second group”. Moreover, the “class of FN binding blocker” value in test [3] was “strong blockers of FN binding”.
